In a protein production outcome set (Wang et al. 2014):

Test: label from the status in PepcDB records

| Sequence | protein production |
| --- | --- |
| MKLNATYIKIRDKWWGLPLFLPSLILPIFAHINTFAHISSGEVFLFYLPLALMISMMMFFSWAALPGIALGIFVRKYAELGFYETLSLTANFIIIIILCWGGYRVFTPRRNNVSHGDTRLISQRIFWQIVFPATLFLILFQFAAFVGLLASRENLVGVMPFNLGTLINYQALLVGNLIGVPLCYFIIRVVRNPFYLRSYYSQLKQQVDAKVTKKEFALWLLALGALLLLLCMPLNEKSTIFSTNYTLSLLLPLMMWGAMRYGYKLISLLWAVVLMISIHSYQNYIPIYPGYTTQLTITSSSYLVFSFIVNYMAVLATRQRAVVRRIQRLAYVDPVVHLPNVRALNRALRDAPWSALCYLRIPGMEMLVKNYGIMLRIQYKQKLSHWLSPLLEPGEDVYQLSGNDLALRLNTESHQERITALDSHLKQFRFFWDGMPMQPQIGVSYCYVRSPVNHIYLLLGELNTVAELSIVTNAPENMQRRGAMYLQRELKDKVAMMNRLQQALEHNHFFLMAQPITGMRGDVYHEILLRMKGENDELISPDSFLPVAHEFGLSSSIDMWVIEHTLQFMAENRAKMPAHRFAINLSPTSVCQARFPVEVSQLLAKYQIEAWQLIFEVTESNALTNVKQAQITLQHLQELGCQIAIDDFGTGYASYARLKNVNADLLKIDGSFIRNIVSNSLDYQIVASICHLARMKKMLVVAEYVENEEIREAVLSLGIDYMQGYLIGKPQPLIDTLNEIEPIRESA | failed |
| MVKIGVCGPVGSGKTALIEALTRHMSKDYDMAVITNDIYTKEDAEFMCKNSVMPRERIIGVETGGCPHTAIREDASMNLEAVEEMHGRFPNLELLLIESGGDNLSATFNPELADFTIFVIDVAEGDKIPRKGGPGITRSDLLVINKIDLAPYVGADLKVMERDSKKMRGEKPFIFTNIRAKEGLDDVIAWIKRNALLED | failed |
| SQEIVAGELERCFLAMPESVLPIVTMEERNDLCRRAGHLSGFTHTASLESSLGGTVTFLLNRNFIRIQTSTVGEVFMRILPFSDSSSVICVVTTVLHPVADSRIDFYTTEWKPLKTDRFWQQPRIEDFFLPHTDRQSYAYQAIYASLTPSYMQVSLSEESDTLSIRQTVTETLAEEEKPLAAIFLSPEPLVYRWQSGRFVRQVR | not failed |
| MKIDLIISADDIKEEKVKNKTAVVIDMLRATSVITTALNNGCKRVVPVLTVEEALKKVKEYGKDAILGGERKGLKIEGFDFSNSPMEYTEDVVKGKTLIMTTTNGTRAIKGSETARDILIGSVLNGEAVAEKIVELNNDVVIVNAGTYGEFSIDDFICSGYIINCVMDRMKKLELTDAATTAQYVYKTNEDIKGFVKYAKHYKRIMELGLKKDFEYCCKKDIVKLVPQYTNGEIL | not failed |
| MAQNEGVSFSECVAAAKLIRSSNGPGWRQAWEELARSHVQRAEEARRTGNEPEAQKSWLHAANYFMAAAIESCPEGAEPALGALARSCLHNYLAHLTPQGETVAIPWLEPRSLEGFYLPVGTYSAETGPVVVCIAETRRTKEEILSLVLRSARKRGMTLLCVDLPDEPPSSRAGPETGIPAILDYLIDGRGIDAKRIAVISDGSPSSLVTRGIALDGRIAAAVCDGGLWDLWVARQTEACGAALGMVQGCARRPAVSCPMLVPLLASEGIEPGHARQLLTEHHPGNRDILLKVFGETSSGPWTLNGYDPILVADFVFDWVGQQLKAATGDADCIRRLESRL | failed |
| MKKIGIIGAGGIARAHATALSTIKNAELVGVYDINQQNAESFVKTFGGKSFENVDELIDASEGLIVASPNFCHKEHALQALGKHKHVLCEKPMAISLEEASIMKDTAERLSVRASMGFNYRYLSYVNILKSLIINNELGNILSIKVHFKKNSALRRKKFTWRDDANSKKTSGSLGDLGIHLIDMVWYLFESDFITESVRAKMNTNVKTKEDKQVLVDDYAEIYGQLRNKVFVNIITSKCSVPEDCGFSIEVVGHKKEFKYHTGNPHVYKLIDGLNVVDCPVPQSLLNDPPNEFYGWADSFRSELINWIASTQNDWVEIPSFSDGFRSQEVLEMFFEKDSNSQPLEHHHHHH | not failed |
| MSALLGILGVVLDARFGEPQGWHPLVAFGRLADRLERRFNRSRLAGEADPGVGWRSHGVTAWVLAVLPLTLLAWALAELPYLGWLVQALALYAALGLRSLGEHAEPVALALRAGDLDEARRRVGYLVSRDTRELDQAGVARAATESVLENGSDAVYAALFWFAVAGAPGVVLYRLSNTLDAMWGYRNARFERFGWAAAKIDDILNYLPARLVALTYALLGDTRQALRCWREQAPQWDSPNAGPVMAAGAGALGVFLGGAAIYHGELHQRPLLGSGPQPQGRDIYRALALVRQGVLLWLLVLAGLWAMGWLHA | failed |
| MIYLHAIDPIAFSLGPVKVHWYGLMYLAGFGAAWCLGRQRIQAGRLLGVNIDGFSDLLFYAMMGVVLGGRVGYMLFYAFHDFLQEPLLLFRVWEGGMSFHGGLIGVLLAVAWWSRRQRMHMFDVVDFCAPLVPVGLGFGRLGNFIGGELWGKLTHNGWGVIFPRAPLSDVPAGQLAMQDVINFVQIQEHYAAGLLGHYARHPSQLYEAFLEGLVMFIVLWLFSRKPRPRYAVSGLFALLYGVFRFLVEFVRMPDNGVYVAFGWLTRGQILSLPLIVIGLFLFWLSCRSPVLQPVPAPEVAK | failed |
| MELVDRYIAAVQRELPEDKRQEIGRELKANICDQLDALAEHAELTESQIADVLQQMGHPAQVAQQFVPPTPIVASEDISLFKHTLVMVLGVLFVLQVVSGATQWLGSTEGSLFGFIRHIASGFIVDACFAFTAILLSFWSISAQGKVMFGGRCQHWQPQNLPNVGPDWQHISLSDVFSDLATYLFLLLLIWNNLWMSADQLAARSVIFSANAQQLLQWFSPVILLSLLNTLWQLLRRLWTAPLLLANAGVNLAYALCLVFLAFSSPLLQYQGGEVEGIFTLQQLDTWLGHALLVTALFPGYECIRDMLRWRKLTAH | failed |
| VTATETVRVRFCPSPTGTPHVGLVRTALFNWAYARHTGGTFVFRIEDTDAQRDSEESYLALLDALRWLGLDWDEGPEVGGPYGPYRQSQRAEIYRDVLARLLAAGEAYHAFSTPEEVEARHVAAGRNPKLGYDNFDRHLTDAQRAAYLAEGRQPVVRLRMPDDDLAWNDLVRGPVTFAAGSVPDFALTRASGDPLYTLVNPCDDALMKITHVLRGEDLLPSTPRQLALHQALIRIGVAERIPKFAHLPTVLGEGTKKLSKRDPQSNLFAHRDRGFIPEGLLNYLALLGWSIADDHDLFGLDEMVAAFDVADVNSSPARFDQKKADALNAEHIRMLDVGDFTVRLRDHLDTHGHHIALDEAAFAAAAELVQTRIVVLGDAWELLKFFNDDQYVIDPKAAAKELGPDGAAVLDAALAALTSVTDWTAPLIEAALKDALIEGLALKPRKAFSPIRVAATGTTVSPPLFESLELLGRDRSMQRLRAARQLVGHA | not failed |
| MRKLNNHDVHKRYQDRLEEDVEFTINYELPLSCLWSTIKDFSSDFEEKTEAFFILFKELLRRGHLKLQRDGQIIGHTPEEWEQIFREVWPEYEIEPNPLPGYAPFDIGMWLTVEAPAYAVWIDPEDGSEYWAG | not failed |
| MSINLRSSGCSSPISATLERRLDSEVQTRANNVSFEQTKEKIRKMLEKVELSVSAYDTSWVAMVPSPSSQNAPLFPQCVKWLLDNQHEDGSWGLDNHDHQSLKKDVLSSTLASILALKKWGIGERQINKGLQFIELNSALVTDETIQKPTGFDIIFPGMIKYARDLNLTIPLGSEVVDDMIRKRDLDLKCDSEKFSKGREAYLAYVLEGTRNLKDWDLIVKYQRKNGSLFDSPATTAAAFTQFGNDGCLRYLCSLLQKFEAAVPSVYPFDQYARLSIIVTLESLGIDRDFKTEIKSILDETYRYWLRGDEEICLDLATCALAFRLLLAHGYDVSYDPLKPFAEESGFSDTLEGYVKNTFSVLELFKAAQSYPHESALKKQCCWTKQYLEMELSSWVKTSVRDKYLKKEVEDALAFPSYASLERSDHRRKILNGSAVENTRVTKTSYRLHNICTSDILKLAVDDFNFCQSIHREEMERLDRWIVENRLQELKFARQKLAYCYFSGAATLFSPELSDARISWAKGGVLTTVVDDFFDVGGSKEELENLIHLVEKWDLNGVPEYSSEHVEIIFSVLRDTILETGDKAFTYQGRNVTHHIVKIWLDLLKSMLREAEWSSDKSTPSLEDYMENAYISFALGPIVLPATYLIGPPLPEKTVDSHQYNQLYKLVSTMGRLLNDIQGFKRESAEGKLNAVSLHMKHERDNRSKEVIIESMKGLAERKREELHKLVLEEKGSVVPRECKEAFLKMSKVLNLFYRKDDGFTSNDLMSLVKSVIYEPVSLQEESLT | failed |
| MKWNLDPSHTSIDFKVRHMGIASVRGSLKVLSGSVETDEAGRPIQVEAVIDAASIATGEPQRDGHLRSADFLHAEQYPEIRFVSTQIEPLGGNRYRIQGNLTIRDITKPVTLEAEVSAPIKDPWGMQRVAASASGQINRKDWNLTWNQVLELGALLVGEEVKFNLEVEAVAPAPVAAQ | not failed |
